These results are taken from patent publication US20240279281A1, “Peptide Inhibitors of Interleukin-23 Receptor” (Janssen Pharmaceutica NV, priority 2023, published 2024).

Starred links: 1 amine or outer side, 2 acyl side, 3 side chain; linkers in the order of their positions; H or OH if unused. Positions of bridges follow the written chain, without caps; N, C: chain ends. Non-standard residues stand in square brackets, D forms with d. No end group written: not given here. X3 = 4‑(2-(4-(2-amino-2-carboxyethyl)phenoxy)ethyl)‑4‑methylmorpholin‑4‑ium, C[N+]1(CCOc2ccc(CC(N[*:1])C(=O)[*:2])cc2)CCOCC1; Trp(7-(3-AcNH-Ph)) = CC(=O)Nc1cccc(-c2cccc3c(C[C@H](N)C(=O)O)c[nH]c23)c1; 2Nal(6-OH) = N[C@@H](Cc1ccc2cc(O)ccc2c1)C(=O)O; Trp(7-Me) = Cc1cccc2c(C[C@H](N)C(=O)O)c[nH]c12; d(hLys(Me3)) = C[N+](C)(C)CCCCC[C@@H](N)C(=O)O; AEF = NCCOc1ccc(C[C@H](N)C(=O)O)cc1; 3Pal = N[C@@H](Cc1cccnc1)C(=O)O; d(hLys) = NCCCCC[C@@H](N)C(=O)O; Pen = CC(C)(S)[C@H](N)C(=O)O; Thp = NC1(C(=O)O)CCOCC1; Sar = CNCC(=O)O Some results are limits rather than exact numbers.

The chains are these.
T1: interleukin-23 receptor (IL-23R), Q5VWK5
T1 chain: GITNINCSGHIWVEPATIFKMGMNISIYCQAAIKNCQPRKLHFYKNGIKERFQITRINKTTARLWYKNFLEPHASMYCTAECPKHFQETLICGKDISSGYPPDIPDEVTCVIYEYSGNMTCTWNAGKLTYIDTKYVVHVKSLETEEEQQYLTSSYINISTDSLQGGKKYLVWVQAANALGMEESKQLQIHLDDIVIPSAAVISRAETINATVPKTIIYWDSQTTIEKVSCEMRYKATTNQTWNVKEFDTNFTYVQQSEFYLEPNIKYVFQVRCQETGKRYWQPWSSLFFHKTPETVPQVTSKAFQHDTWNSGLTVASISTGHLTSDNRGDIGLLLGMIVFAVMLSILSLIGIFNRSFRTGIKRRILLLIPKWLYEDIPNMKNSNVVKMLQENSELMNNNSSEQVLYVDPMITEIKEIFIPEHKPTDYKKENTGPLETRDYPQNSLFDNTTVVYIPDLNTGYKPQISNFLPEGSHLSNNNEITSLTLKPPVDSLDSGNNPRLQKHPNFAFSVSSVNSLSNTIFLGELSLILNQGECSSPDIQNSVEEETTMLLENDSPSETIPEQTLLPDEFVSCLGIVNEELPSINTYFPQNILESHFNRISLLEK

B1: SEQ ID NO: 139 (peptide)
peptide: [Pen]NT[Trp(7-Me)]K(Ac)[Pen][AEF][2Nal(6-OH)][Thp]K(Ac)N[3Pal][Sar]K
modifications: disulfide 1-6 (inferred); ends not checked; also: K14: lipidated lysine, lipid not given here
B2: SEQ ID NO: 142 (peptide)
peptide: R[Pen]ET[Trp(7-Me)]K(Ac)[Pen][2‑amino‑3‑(4-(2-aminoethoxy)phenyl)propanoic acid][2‑amino‑3‑(6-hydroxynaphthalen-2-yl)propanoic acid][Thp]EN[3Pal][Sar]K
modifications: disulfide 2-7 (inferred); ends not checked; also: Lys15: lipidated lysine, lipid not given here
B3: SEQ ID NO: 118 (peptide)
peptide: K[Pen]NT[Trp(7-Me)]K(Ac)[Pen][AEF][2Nal(6-OH)][Thp]K(Ac)N[3Pal][Sar]
modifications: disulfide 2-7 (inferred); ends not checked; also: K1: lipidated lysine, lipid not given here
B4: SEQ ID NO: 116 (peptide)
peptide: R[Pen]NT[Trp(7-Me)]K(Ac)[Pen][AEF][2Nal(6-OH)][Thp]EN[3Pal][Sar]K
modifications: disulfide 2-7 (inferred); ends not checked; also: K15: lipidated lysine, lipid not given here
B5: SEQ ID NO: 119 (peptide)
peptide: [d(hLys)](Me3)[Pen]NT[Trp(7-Me)]K[Pen][AEF][2Nal(6-OH)][Thp]K(Ac)N[3Pal][Sar]
modifications: disulfide 2-7 (inferred); ends not checked; also: K6: lipidated lysine, lipid not given here
B6: SEQ ID NO: 96 (peptide)
peptide: [Pen]NT[Trp(7-Me)]K[Pen][AEF][2Nal(6-OH)][Thp]K(Ac)N[3Pal][Sar]
modifications: disulfide 1-6 (inferred); not fully specified (residue 5); ends not checked; also: K5: lipidated lysine, lipid not given here
B7: SEQ ID NO: 129 (peptide)
peptide: [Pen]NT[Trp(7-Me)]K(Ac)[Pen][AEF][2Nal(6-OH)][Thp]KN[3Pal][Sar]
modifications: disulfide 1-6 (inferred); ends not checked; also: K10: lipidated lysine, lipid not given here
B8: SEQ ID NO: 140 (peptide)
peptide: R[Pen]ET[Trp(7-Me)]K[Pen][AEF][2Nal(6-OH)][Thp]EN[3Pal][Sar]
modifications: disulfide 2-7 (inferred); ends not checked; also: K6: lipidated lysine, lipid not given here
B9: SEQ ID NO: 128 (peptide)
peptide: [Pen]NT[Trp(7-Me)]K(Ac)[Pen][AEF][2Nal(6-OH)][Thp]KN[3Pal][Sar]
modifications: disulfide 1-6 (inferred); ends not checked; also: K10: lipidated lysine, lipid not given here
B10: SEQ ID NO: 131 (peptide)
peptide: [Pen]NT[Trp(7-Me)]K[Pen][AEF][2Nal(6-OH)][Thp]K(Ac)N[3Pal][Sar]
modifications: disulfide 1-6 (inferred); ends not checked; also: K5: lipidated lysine, lipid not given here
B11: SEQ ID NO: 147 (peptide)
peptide: R[Pen]ET[Trp(7-Me)]K(Ac)[Pen][2‑amino‑3‑(4-(2-aminoethoxy)phenyl)propanoic acid][2‑amino‑3‑(6-hydroxynaphthalen-2-yl)propanoic acid][Thp]EN[3Pal][Sar]K
modifications: disulfide 2-7 (inferred); ends not checked; also: Lys15: lipidated lysine, lipid not given here
B12: SEQ ID NO: 126 (peptide)
peptide: K[Pen]NT[Trp(7-Me)]K(Ac)[Pen][AEF][2Nal(6-OH)][Thp]EN[3Pal][Sar]
modifications: disulfide 2-7 (inferred); ends not checked; also: K1: lipidated lysine, lipid not given here

The target in the test is T1, interleukin-23 receptor (IL-23R), Q5VWK5. Put plainly: cell-based or functional assay.
Turning to B1, the PBMC pSTAT3 IC50 was less than 0.1 nM. For the molecule B2, the PBMC pSTAT3 IC50 is less than 0.1 nM.

B3: the PBMC pSTAT3 IC50 is less than 1 nM.

For B4, the PBMC pSTAT3 IC50 was less than 1 nM. [d(hLys(Me3))][Pen]NT[Trp(7-Me)]K(Ac)[Pen][2‑amino‑3‑(4-(2-aminoethoxy)phenyl)propanoic acid][2‑amino‑3‑(6-hydroxynaphthalen-2-yl)propanoic acid][Thp]EN[3Pal][Sar] (disulfide 2-7 (inferred); ends not checked) [SEQ ID NO: 144] displayed a PBMC pSTAT3 IC50 of less than 1 nM. B5 came in with a PBMC pSTAT3 IC50 of less than 1 nM. As for [Pen]NT[Trp(7-Me)]K(Ac)[Pen][5‑(4-(2-amino-2-carboxyethyl)phenoxy)‑N,N,N‑trimethylpentan‑1‑aminium][2Nal(6-OH)][Thp]EN[3Pal][Sar] (not fully specified (bridges); ends and bridges not checked) [SEQ ID NO: 79], the IL23R Reporter Assay IC50 is less than 10 nM and the PBMC pSTAT3 IC50 was less than 0.01 nM. As to B6, the PBMC pSTAT3 IC50 is less than 0.1 nM. In turn, [(R)‑2‑(2-(3-((5-carboxy-5-hydrazineylpentyl)amino)-3-oxopropoxy)ethoxy)‑N,N,N‑trimethylethan‑1‑aminium][Pen]NT[Trp(7-Me)]K(Ac)[Pen][2‑amino‑3‑(4-(2-aminoethoxy)phenyl)propanoic acid][2‑amino‑3‑(6-hydroxynaphthalen-2-yl)propanoic acid][Thp]EN[3Pal][Sar] (disulfide 2-7 (inferred); ends not checked) [SEQ ID NO: 145] gave a PBMC pSTAT3 IC50 of less than 0.1 nM. Same read-out and setting: the same measure for B7: less than 1 nM; for B8: less than 1 nM; for B9: less than 1 nM. In turn, K[Pen]ET[Trp(7-Me)]K(Ac)[Pen][AEF][2Nal(6-OH)][Thp]K(Ac)N[3Pal][Sar] (disulfide 2-7 (inferred); ends not checked) [SEQ ID NO: 134] gave a PBMC pSTAT3 IC50 of less than 1 nM.

On to R[Pen]NT[Trp(7-(3-AcNH-Ph))]K(Ac)[Pen][X3][2Nal(6-OH)][Thp]EN[Thp] (disulfide 2-7 (inferred); ends not checked) [SEQ ID NO: 110], for which the PBMC pSTAT3 IC50 was less than 1 nM. As to B10, the PBMC pSTAT3 IC50 is less than 1 nM. In turn, R[Pen]ET[Trp(7-Me)]K(Ac)[Pen][AEF][2Nal(6-OH)][Thp]EN[3Pal][Sar] (disulfide 2-7 (inferred); ends not checked) [SEQ ID NO: 141] had a PBMC pSTAT3 IC50 of less than 0.1 nM.

Molecule B11 came in with a PBMC pSTAT3 IC50 of less than 1 nM. Regarding B12, the PBMC pSTAT3 IC50 is less than 1 nM.
